Measurements published in patent US5508261.

Tests used:
[1] = target: rat luteal ovarian LH receptors (rat) (UniProt P16235); test: inhibition of 125I-hCG binding to rat luteal ovarian LH receptors
[2] = target: bovine testes FSH receptors (bovine) (UniProt P35376); test: inhibition of 125I-hFSH binding to bovine testes FSH receptors

- activity relative to hCG (LH RECEPTORS; ratio of concentrations for 50% inhibition) (relative to recombinant hCG) [1]: 0.53
- activity relative to hFSH (FSH RECEPTORS; ratio of concentrations for 50% inhibition) (relative to recombinant hFSH) [2]: 0.18
Substance: eCG (ligand)
